Assay results reported in PMC12463012, “Sequence‐ and Docking‐Site‐Dependent Contributions to Multi‐Site Phosphorylation of an Intrinsically Disordered MAPK Substrate” (Advanced Science, 2025).

Target: the molecule itself
Assay: SEC-MALS; SEC-MALLS at 4 °C; 20 µL of JIP1^SH3 at 5.6 mg mL^-1 injected at 0.5 mL min^-1 on Superdex 200 10/300 GL in 50 mM HEPES pH 7.1, 150 mM NaCl, 2 mM DTT

B1: JIP1^SH3 (JIP1 IDR residues 1–450 linked to the SH3 domain of JIP1, residues 489–553, via a (GS)3G linker) (domain or fragment)
chain: GHMMAERESGGLGGGAASPPAASPFLGLHIASPPNFRLTHDISLEEFEDEDLSEITDECGISLQCKDTLSLRPPRAGLLSAGGGGAGSRLQAEMLQMDLIDATGDTPGAEDDEEDDDEERAARRPGAGPPKAESGQEPASRGQGQSQGQSQGPGSGDTYRPKRPTTLNLFPQVPRSQDTLNNNSLGKKHSWQDRVSRSSSPLKTGEQTPPHEHICLSDELPPQSGPAPTTDRGTSTDSPCRRSTATQMAPPGGPPAAPPGGRGHSHRDRIHYQADVRLEATEEIYLTPVQRPPDAAEPTSAFLPPTESRMSVSSDPDPAAYPSTAGRPHPSISEEEEGFDCLSSPERAEPPGGGWRGSLGEPPPPPRASLSSDTSALSYDSVKYTLVVDEHAQLELVSLRPCFGDYSDESDSATVYDNCASVSSPYESAIGEEYEEAPRPQPPACLSEDSTPDGSGSGSGQEQTHRAIFRFVPRHEDELELEVDDPLLVELQAEDYWYEAYNMRTGARGVFPAYYAIEVTKEPEH
notes: extension left at the N-terminus after TEV cleavage; (GS)3G linker that replaces residues 451-488 of JIP1; Residues 451-488 of JIP1 replaced by the glycine-serine linker because they are prone to aggregation; also called JIP1^SH3 dimer; not shown: thioredoxin, N-terminal, cleaved; His6, N-terminal, cleaved
  stoichiometry N: 2
